The values below come from patent publication US7807363B2, “Superoxide dismutase-2 expression for glaucoma diagnosis” (Alcon Research, Ltd., priority 2006, dated 2010).

In this assay the test system is SOD-2 mRNA in NTM-115 cells. Kind of assay: RT-qPCR of SOD-2 mRNA in NTM-115 TM cells treated with SAA. The following applies: rhSAA 40 ug/ml, 24 hr, compared to untreated cells, FIG. 4. The assay is classed as cell-based. The method, then:
SOD-2 mRNA levels in FIG. 1 were measured using real-time quantitative PCR (RT-qPCR). In the RT-qPCR protocol used in one embodiment of the present invention, total RNA was extracted from cultured TM cells or from RNAlater-preserved ocular tissues by using a commercial kit of RNAqueous-4 PCR (Ambion, Austin, Tex.) according to the manufacturer's instructions. RNA quality was assessed by agarose gel electrophoresis or with a 2100 Bioanalyer (Agilent). cDNA was synthesized using MultiScribe reverse transcriptase and random hexamers (PE Applied Biosystems, Foster City, Calif.). Real-time PCR was performed using the ABI Prism 7700 Sequence Detection System according to the manufacturer's instructions (Applied Biosystems, Foster City, Calif.). […] Relative RNA concentrations were determined by comparison to a standard curve generated by different dilutions of TM cell cDNA. […]
In this embodiment, a TM cell line is treated with SAA, which causes overexpression of SOD-2. After addition of the test compound or appropriate vehicle control, the levels of SOD-2 are measured in the test and control replicates via qPCR using the protocol given in the description accompanying FIG. 1. […]
Background: In qPCR the cycle at which signal appears reflects the starting amount.

B1: serum amyloid A (protein, UniProt P0DJI8 19-122, looked up)
Serum amyloid A-1 protein: RSFFSFLGEAFDGARDMWRAYSDMREANYIGSDKYFHARGNYDAAKRGPGGAWAAEVITDARENIQRFFGHGAEDSLADQAANEWGRSGKDPNHFRPAGLPEKY
notes: acute-phase reactant protein; recombinant human SAA used to induce SOD-2 overexpression in TM cells
As to B1, the “SOD-2 mRNA levels” value is recorded as “increased levels of SOD-2 mRNA”.
